From PMC6315137, “Pyridine Nucleotide Coenzyme Specificity of p-Hydroxybenzoate Hydroxylase and Related Flavoprotein Monooxygenases” (Frontiers in Microbiology, 2018) come the findings set out here.

Usually Km stands for the substrate concentration at which the rate is half of its maximum. The term Vmax denotes the rate approached at saturating substrate. In general, kcat refers to the number of substrate molecules converted per active site and unit of time at saturation.

Holding throughout (assay): purified protein
Substrate in series [1]: NC(=O)C1=CN([C@@H]2O[C@H](COP(=O)(O)OP(=O)(O)OC[C@H]3O[C@@H](n4cnc5c(N)ncnc54)[C@H](OP(=O)(O)O)[C@@H]3O)[C@@H](O)[C@H]2O)C=CC1
Type of series: biochemical, Cupriavidus necator. The following applies: 500 μM 4-hydroxybenzoate, 60 μM FAD, 50 mM Tris/sulfate pH 7.5, 30°C.

Substrate in series [2]: O=C(O)c1ccc(O)cc1
The class given is biochemical, Cupriavidus necator. The following applies: 175 μM NADPH, 60 μM FAD, 50 mM Tris/sulfate pH 7.5, 30°C.

Substrate in series [3]: NC(=O)C1=CN([C@@H]2O[C@H](COP(=O)(O)OP(=O)(O)OC[C@H]3O[C@@H](n4cnc5c(N)ncnc54)[C@H](O)[C@@H]3O)[C@@H](O)[C@H]2O)C=CC1
Type of series: biochemical, Rhodococcus opacus. The following applies: 500 μM 4-hydroxybenzoate, 60 μM FAD, 50 mM Tris/sulfate pH 7.5, 30°C.

Substrate in series [4]: NC(=O)C1=CN([C@@H]2O[C@H](COP(=O)(O)OP(=O)(O)OC[C@H]3O[C@@H](n4cnc5c(N)ncnc54)[C@H](OP(=O)(O)O)[C@@H]3O)[C@@H](O)[C@H]2O)C=CC1
Type of series: biochemical, Rhodococcus opacus. To be noted: 500 μM 4-hydroxybenzoate, 60 μM FAD, 50 mM Tris/sulfate pH 7.5, 30°C.

Substrate in series [5]: O=C(O)c1ccc(O)cc1
Type of series: biochemical, Rhodococcus opacus. The following applies: 175 μM NADH, 60 μM FAD, 50 mM Tris/sulfate pH 7.5, 30°C.

Substrate in series [6]: NC(=O)C1=CN([C@@H]2O[C@H](COP(=O)(O)OP(=O)(O)OC[C@H]3O[C@@H](n4cnc5c(N)ncnc54)[C@H](O)[C@@H]3O)[C@@H](O)[C@H]2O)C=CC1
The class given is biochemical, Cupriavidus pinatubonensis. To be noted: 500 μM 4-hydroxybenzoate, 60 μM FAD, 50 mM Tris/sulfate pH 7.5, 30°C.

Substrate in series [7]: O=C(O)c1ccc(O)cc1
Type of series: biochemical, Cupriavidus pinatubonensis. To be noted: 175 μM NADH, 60 μM FAD, 50 mM Tris/sulfate pH 7.5, 30°C.

B1: PHBHCn2 (Cupriavidus pinatubonensis JMP134) (protein)
chain: MRTQVAIIGAGPAGLLLGQLLSRAGIDNIIVEQRSPEYVLGRIRAGILESVTVDALERAGVAARLHDEGLPHAGIELSFNGQRHRIDLQALTGRTVTVYGQTEVTRDLMAARQAEGTTTIYEAADVSLHGFDGTRPLVRYRKDGATHEIECDYIAGCDGFHGVSRQSVPATSSQLFERVYPFGWLGILSDTPPVADELIYASHERGFALCSMRSKARSRYYVQVPSTERVEDWSDERFWDELRSRLDPQAAESLVTGPSIEKSIAPLRSFVCEPMRFGRLFLAGDAAHIVPPTGAKGLNLAASDVLYLADALTARYQQDDLRELDSYSEKCLRRIWKAERFSWWMTSLLHRFPDADAFSARIQQAELDFLVSSEAACKALAENYVGLPY
notes: N-terminal His10-tag, codon-optimized gene, E. coli BL21 (DE3) pLysS, Ni-chelate purified; motif 32-EQRSPEYVLGR
For B1, in series [1], the Km worked out at 146 ± 20 µM, the Vmax was determined as 49.1 µmol/min/mg and the kcat stood at 37 ± 2.8 s⁻¹. Besides, in series [2], the Km amounted to 26.4 ± 4.4 µM, the Vmax stood at 27 µmol/min/mg and the kcat was 18 ± 0.7 s⁻¹.

B2: PHBHRo1CP (Rhodococcus opacus) (protein)
chain: MNTQVGIVGGGPAGLMLSHLLHLKGIDSVVLESRTREEVEGTIRAGVLEQNTVDLMVDTGLGDRVKREGLTHHGIELRFGGRGHRIDFDELTNGRAVTVYPQHEVLKDLIARRLEDDGDIRFGVSDVQVHDHTSDNPKITYLDADGNEQTLTCALVAGCDGSRTSTRGLIPETTVRTDHFRQYPFAWFGILAEAPPSSEELIYANHPRGFALISTRTPEVQRHYLQVDPDDSVDNWSDDRIWSELHARVDGEGAEIKDGKIFQKSILQFRSFVCEPMQHGNLFLAGDAAHTVPPTGAKGMNLAIADVYFLSQAMAEYFATRSRAGLEGYTDSVLPRVWRTQHFSWWMSSMLHRLPDETGFGHKRQVAELDMVTRSVAGRTLIAENYVGTPLG
notes: His10-tagged, pET16bp, E. coli, Ni-chelate purified; motif 32-ESRTREEVEGT
As to B2, in series [3], the Km came to 39.7 ± 5.0 µM, the Vmax worked out at 20 µmol/min/mg and the kcat worked out at 15.3 ± 0.7 s⁻¹. In series [4], the Km came out at 153 ± 16 µM, the Vmax was found to be 19.8 µmol/min/mg and the kcat came to 15 ± 1.5 s⁻¹. Further, in series [5], the Km worked out at 30.4 ± 2.4 µM, the Vmax was 16.8 µmol/min/mg and the kcat was determined as 12.9 ± 0.2 s⁻¹.

B3: PHBHCn1 (Cupriavidus pinatubonensis JMP134) (protein)
chain: MRTRVAIIGAGPAGLLLGHLLQRAGIDSVILEDCTQAHVEARIRAGVLEQGTVDLLEEAGVAARLREQGMVHHGIDLLFDGQRHRIDLSGLTGGRAITVYGQHEVVRDLIAARQACGAPLLFEVSQVALHGLDTQSPSLSFEHGGQRHVLACDFIAGCDGSHGVSRHAVPAGALQVFERSYPFAWLGILASAAPAAQELIYASHARGFALFSMRSPEITRLYLQCRPDEDLAGWTDRRIWDELHARLETGDGWHLNEGPVLQKGITPMRSLVTEPMQYGRLFLAGDAAHIVPPTGAKGMNLAVADVRNLAHALVTHYRHGRDDLLAGYSSACLARVWRAEHFSWWMTSLLHRFDDHTPFTARLQHAELAYVCASQAASRMLAENYVGLPFAPLPA
notes: N-terminal His10-tag, codon-optimized gene, E. coli BL21 (DE3) pLysS, Ni-chelate purified; motif 32-EDCTQAHVEAR
Regarding B3, in series [6], the Km was 49.8 ± 5.6 µM, the Vmax worked out at 12.3 µmol/min/mg and the kcat is 9.4 ± 0.4 s⁻¹. In series [7], the Km worked out at 20.2 ± 2.3 µM, the Vmax was 9.9 µmol/min/mg and the kcat was 7.6 ± 0.2 s⁻¹.
